According to article doi:10.1101/2020.06.22.166033:
pKd: −log10 of the molar value.

Biological target: SARS-CoV-2-RBD-AVI probe (SARS-CoV-2) (UniProt P0DTC2)
Test: SPR

CR3022 Fab
pKd: 7.60
